Measurements: patent US20240279345A1, “ALPHA 5 BETA 1 INTEGRIN BINDING AGENTS AND USES THEREOF” (PASITHEA THERAPEUTICS CORP., priority 2021, published 2024)
Positions count from the first letter of the chain named.

Key:
[1] = biological target: T1, recombinant human α5β1 integrin (rh-α5β1; R&D Systems, cat. no. 3230-A5) (human, UniProt P08648 42-995; P05556 21-728); test: ELISA, coated rh-α5β1, supernatant 1:10
T1 construct: bought recombinant heterodimer
Description: (§1) Plates were washed 3 times with Wash Buffer (1× Tris Buffered Saline containing 0.05% Tween20), blocked with 2% BSA in 1×TBS (made from 10× Thermo Scientific Blocker BSA (10×) in TBS; Thermo Fisher Scientific, Waltham, MA, cat. no. 37520) for 2 hours at room temperature (RT) then incubated with hybridoma supernatants diluted 1:10 with Standard Diluent (2% BSA, 1×TBS, 0.05% Tween20). […] Absorbance 450 nm was measured.

[2] = biological target: T2, purified recombinant human α5β1 integrin heterodimer, 6×His tagged (rh-α5β1); Acro Biosystems, cat. no. … (human, UniProt P08648 42-995; P05556 21-728); test: BLI (Octet), supernatant mAb on anti-mouse IgG Fc sensor, 20 nM rh-α5β1
T2 construct: bought recombinant heterodimer; also called rh-α5β1-6×His tagged protein; His-tagged-α5β1
Source text: Anti-Mouse IgG Fc biosensors were used to load each clone supernatant. Assay steps were as follows: Sensor Check (30s)-->Load Ab (700s)-->Quench (480s)-->Baseline(480s)-->Ab Assoc. (600s)-->Dissoc. (600s).

[3] = biological target: T3, recombinant human α4β1 integrin (human, UniProt P13612 34-977; P05556 21-728); test: ELISA, coated integrin, supernatant 1:10
T3 construct: bought recombinant heterodimer (R&D Systems cat. 5668-A4) coated on the plate; also called rh-α4β1
Description: as §1

[4] = biological target: T4, recombinant human α5β1 integrin (human, UniProt P08648 42-995; P05556 21-728); test: ELISA, coated integrin, supernatant 1:10
T4 construct: also called rh-α5β1
Description: as §1

[5] = biological target: T5, recombinant mouse α5β1 integrin (mouse, UniProt P11688 45-999; P09055 21-728); test: ELISA, coated integrin, supernatant 1:10
T5 construct: bought recombinant heterodimer (R&D Systems cat. 7728-A5) coated on the plate; also called rm-α5β1
Description: as §1

rh-α5β1 = rh-α5β1 (Homo sapiens, UniProt P05556+P08648); test: Competition binding studies by Biolayer Interferometry (epitope groups); details: for Response (nm) / % Response: secondary mAb pre-mixed with 20 nM rh-α5β1; for % Response: relative to antigen alone
Description: Epitope analysis via competition binding studies was performed using Biolayer Interferometry (BLI) on the 6 antibodies selected as described in Example 5. The anti-α5β1 FN blocking antibodies A2-7A05, C-14D12 and A-15B08 were immobilized on sensors and incubated with each of the other antibodies that had been preincubated with rh-α5β1, to determine whether this antibody-antigen association prevents or allows binding to the antibody on the sensor. The magnitude of observed binding (response) was compared to binding of antigen alone under the same conditions. If the overall response was greater than 120% of antigen binding alone, then the antibodies can pair with each other. If response was less than 80% of response of antigen binding alone, then the antibodies block each other. The protocol was as follows: preincubate the panel of antibodies with antigen (1 hr). Equilibrate the sensor (30 seconds (s))-->Load lead Ab on the sensor (700s)--->Quench (480s)--->Read baseline (480s)-->measure preincubated Ab+Ag association with loaded sensor (600s).

[6] = biological target: T6, recombinant human α5β1 integrin (rh-α5β1) (Homo sapiens, UniProt P05556+P08648); test: Plate-based ELISA reactivity to rh-α5β1; assay type: binding; details: selected for further characterization among α5 specific hybridomas (28 selected)
T6 construct: purchased R&D Systems 3230-A5
Description: The 249 positive hybridoma supernatants selected as described in Example 1 were screened for reactivity to rh-α5β1 in a plate-based ELISA. Immulon4 HBX ELISA 96-well plates (Thermo Fisher Scientific, Waltham, MA, cat. no. 3855) were coated with rh-α5β1 (R&D Systems, Minneapolis, MN 55413, cat. no. 3230-A5), at 1 μg/mL in PBS supplemented with 0.5 mM MgCl2, MnCl2 and CaCl2 and incubated overnight at 4° C. Plates were washed 3 times with Wash Buffer (1× Tris Buffered Saline containing 0.05% Tween20), blocked with 2% BSA in 1×TBS (made from 10× Thermo Scientific Blocker BSA (10×) in TBS; Thermo Fisher Scientific, Waltham, MA, cat. no. 37520) for 2 hours at room temperature (RT) then incubated with hybridoma supernatants diluted 1:10 with Standard Diluent (2% BSA, 1×TBS, 0.05% Tween20). Following a 1 hour incubation at RT, wells were washed 3 times, incubated with biotinylated goat anti-mouse secondary antibody at 1:8000 dilution (Invitrogen, Carlsbad, CA, cat. no. 62-6540) for 1 hour, washed 3 times, then incubated for 30 minutes with poly-HRP Streptavidin (Thermo Fisher Scientific, Waltham, MA, cat. no. N200), washed 4 times, incubated with TMB (Thermo Fisher Scientific, Waltham, MA, cat. no. N301) for 5-10 minutes, followed by addition of ELISA Stop Solution (Invitrogen, Carlsbad, CA, cat. no. SS04). Absorbance 450 nm was measured.

Chain of rh-α5β1 (P08648 42-894 limits assumed): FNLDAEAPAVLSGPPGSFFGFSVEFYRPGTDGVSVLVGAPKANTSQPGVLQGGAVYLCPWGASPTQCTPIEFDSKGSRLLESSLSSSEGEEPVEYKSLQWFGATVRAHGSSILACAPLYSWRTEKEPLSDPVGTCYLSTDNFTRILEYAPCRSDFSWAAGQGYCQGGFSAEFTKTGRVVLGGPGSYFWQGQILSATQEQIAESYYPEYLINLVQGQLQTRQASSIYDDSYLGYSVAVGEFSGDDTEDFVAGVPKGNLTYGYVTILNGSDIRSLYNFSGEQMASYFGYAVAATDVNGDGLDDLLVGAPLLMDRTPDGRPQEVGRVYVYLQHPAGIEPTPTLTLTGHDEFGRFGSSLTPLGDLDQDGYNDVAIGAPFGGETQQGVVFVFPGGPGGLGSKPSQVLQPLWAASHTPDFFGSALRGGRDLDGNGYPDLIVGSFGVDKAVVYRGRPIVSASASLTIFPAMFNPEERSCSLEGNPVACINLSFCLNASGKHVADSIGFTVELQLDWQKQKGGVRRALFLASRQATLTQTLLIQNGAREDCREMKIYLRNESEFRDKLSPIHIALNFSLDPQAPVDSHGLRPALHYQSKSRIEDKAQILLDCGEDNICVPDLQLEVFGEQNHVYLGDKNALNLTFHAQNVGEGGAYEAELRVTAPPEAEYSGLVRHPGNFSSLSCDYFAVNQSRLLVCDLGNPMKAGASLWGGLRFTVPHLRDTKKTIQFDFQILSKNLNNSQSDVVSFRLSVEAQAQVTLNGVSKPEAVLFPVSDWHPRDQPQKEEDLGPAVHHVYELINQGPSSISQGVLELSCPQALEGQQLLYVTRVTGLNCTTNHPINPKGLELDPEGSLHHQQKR
Chain of rh-α5β1 (P08648 895-995 limits assumed): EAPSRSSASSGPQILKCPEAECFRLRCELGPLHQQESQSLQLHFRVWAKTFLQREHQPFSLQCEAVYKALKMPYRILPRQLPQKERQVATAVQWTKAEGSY
Chain of rh-α5β1 (P05556 21-728 limits assumed): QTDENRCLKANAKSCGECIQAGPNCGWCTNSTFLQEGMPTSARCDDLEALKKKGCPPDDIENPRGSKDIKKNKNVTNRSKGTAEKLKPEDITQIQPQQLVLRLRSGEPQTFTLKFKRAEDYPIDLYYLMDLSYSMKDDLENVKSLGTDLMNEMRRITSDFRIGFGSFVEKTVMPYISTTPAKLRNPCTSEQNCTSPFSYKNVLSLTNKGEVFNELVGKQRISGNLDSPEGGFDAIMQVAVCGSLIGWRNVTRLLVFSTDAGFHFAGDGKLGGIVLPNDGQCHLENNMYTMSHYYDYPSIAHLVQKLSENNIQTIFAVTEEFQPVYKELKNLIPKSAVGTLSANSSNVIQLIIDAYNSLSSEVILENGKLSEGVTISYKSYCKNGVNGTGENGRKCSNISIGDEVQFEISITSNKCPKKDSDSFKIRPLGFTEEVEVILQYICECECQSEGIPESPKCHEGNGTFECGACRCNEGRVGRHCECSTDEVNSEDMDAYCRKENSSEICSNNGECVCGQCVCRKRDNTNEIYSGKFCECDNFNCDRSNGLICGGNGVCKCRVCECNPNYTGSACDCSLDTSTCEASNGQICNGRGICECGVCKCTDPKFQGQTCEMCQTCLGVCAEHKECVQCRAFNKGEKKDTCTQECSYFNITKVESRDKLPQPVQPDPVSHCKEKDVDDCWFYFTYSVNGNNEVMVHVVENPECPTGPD
T4 sequence (P08648 42-995 limits assumed, form in doubt, chain 1 of 2): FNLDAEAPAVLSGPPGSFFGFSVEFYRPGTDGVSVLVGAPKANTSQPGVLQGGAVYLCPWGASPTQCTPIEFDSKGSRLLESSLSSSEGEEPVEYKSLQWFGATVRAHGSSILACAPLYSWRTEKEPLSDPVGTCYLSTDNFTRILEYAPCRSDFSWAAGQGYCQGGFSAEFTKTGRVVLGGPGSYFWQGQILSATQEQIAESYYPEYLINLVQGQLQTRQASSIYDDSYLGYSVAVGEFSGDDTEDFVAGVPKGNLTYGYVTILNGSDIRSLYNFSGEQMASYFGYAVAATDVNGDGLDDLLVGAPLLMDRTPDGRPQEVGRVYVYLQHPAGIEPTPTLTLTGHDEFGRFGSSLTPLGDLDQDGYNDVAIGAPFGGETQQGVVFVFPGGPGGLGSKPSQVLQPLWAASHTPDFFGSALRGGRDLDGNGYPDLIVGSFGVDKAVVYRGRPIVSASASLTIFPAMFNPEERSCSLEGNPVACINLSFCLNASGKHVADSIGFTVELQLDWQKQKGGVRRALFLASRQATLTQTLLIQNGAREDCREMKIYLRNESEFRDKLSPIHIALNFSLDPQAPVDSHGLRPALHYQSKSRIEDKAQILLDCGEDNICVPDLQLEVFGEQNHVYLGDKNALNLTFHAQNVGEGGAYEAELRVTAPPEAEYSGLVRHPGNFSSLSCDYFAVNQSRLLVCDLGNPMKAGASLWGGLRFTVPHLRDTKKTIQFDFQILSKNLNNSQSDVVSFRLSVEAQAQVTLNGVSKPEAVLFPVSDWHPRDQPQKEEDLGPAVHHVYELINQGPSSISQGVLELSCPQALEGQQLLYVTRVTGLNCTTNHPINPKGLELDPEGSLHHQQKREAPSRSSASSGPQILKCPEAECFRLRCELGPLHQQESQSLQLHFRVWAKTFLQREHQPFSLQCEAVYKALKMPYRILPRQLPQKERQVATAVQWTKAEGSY
T4 sequence (P05556 21-728 limits assumed, form in doubt, chain 2 of 2): as the sequence (P05556 21-728 limits assumed) above
T1 sequence (P08648 42-995 limits assumed, form in doubt, chain 1 of 2): as the sequence (P08648 42-995 limits assumed, form in doubt, chain 1 of 2) above
T1 sequence (P05556 21-728 limits assumed, form in doubt, chain 2 of 2): as the sequence (P05556 21-728 limits assumed) above
T2 sequence (P08648 42-995 limits assumed, form in doubt, chain 1 of 2): as the sequence (P08648 42-995 limits assumed, form in doubt, chain 1 of 2) above
T2 sequence (P05556 21-728 limits assumed, form in doubt, chain 2 of 2): as the sequence (P05556 21-728 limits assumed) above
T5 sequence (P11688 45-999 limits assumed, form in doubt, chain 1 of 2): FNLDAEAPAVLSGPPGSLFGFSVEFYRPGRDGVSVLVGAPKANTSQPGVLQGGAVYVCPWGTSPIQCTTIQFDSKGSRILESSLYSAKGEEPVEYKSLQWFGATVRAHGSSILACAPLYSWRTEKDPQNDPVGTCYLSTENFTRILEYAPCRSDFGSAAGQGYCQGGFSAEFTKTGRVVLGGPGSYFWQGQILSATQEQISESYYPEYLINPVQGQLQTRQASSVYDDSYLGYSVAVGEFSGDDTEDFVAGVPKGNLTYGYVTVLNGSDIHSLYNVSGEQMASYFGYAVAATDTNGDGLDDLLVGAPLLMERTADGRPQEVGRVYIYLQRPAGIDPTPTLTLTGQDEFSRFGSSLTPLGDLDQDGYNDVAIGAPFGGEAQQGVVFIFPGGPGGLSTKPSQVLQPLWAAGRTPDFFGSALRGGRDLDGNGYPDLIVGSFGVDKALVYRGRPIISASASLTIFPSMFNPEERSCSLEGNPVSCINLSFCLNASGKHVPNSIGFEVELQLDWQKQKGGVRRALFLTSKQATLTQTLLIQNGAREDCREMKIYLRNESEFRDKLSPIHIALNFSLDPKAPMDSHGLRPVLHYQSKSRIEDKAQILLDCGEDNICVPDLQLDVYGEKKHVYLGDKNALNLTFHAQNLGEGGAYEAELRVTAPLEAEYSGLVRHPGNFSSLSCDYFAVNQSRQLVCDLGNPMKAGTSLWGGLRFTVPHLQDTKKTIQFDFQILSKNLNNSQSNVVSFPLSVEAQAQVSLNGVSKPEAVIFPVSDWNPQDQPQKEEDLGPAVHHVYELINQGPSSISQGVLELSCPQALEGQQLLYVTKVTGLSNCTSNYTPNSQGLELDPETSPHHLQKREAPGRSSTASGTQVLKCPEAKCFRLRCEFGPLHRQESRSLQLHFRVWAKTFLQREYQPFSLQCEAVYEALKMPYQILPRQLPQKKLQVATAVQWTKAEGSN
T5 sequence (P09055 21-728 limits assumed, form in doubt, chain 2 of 2): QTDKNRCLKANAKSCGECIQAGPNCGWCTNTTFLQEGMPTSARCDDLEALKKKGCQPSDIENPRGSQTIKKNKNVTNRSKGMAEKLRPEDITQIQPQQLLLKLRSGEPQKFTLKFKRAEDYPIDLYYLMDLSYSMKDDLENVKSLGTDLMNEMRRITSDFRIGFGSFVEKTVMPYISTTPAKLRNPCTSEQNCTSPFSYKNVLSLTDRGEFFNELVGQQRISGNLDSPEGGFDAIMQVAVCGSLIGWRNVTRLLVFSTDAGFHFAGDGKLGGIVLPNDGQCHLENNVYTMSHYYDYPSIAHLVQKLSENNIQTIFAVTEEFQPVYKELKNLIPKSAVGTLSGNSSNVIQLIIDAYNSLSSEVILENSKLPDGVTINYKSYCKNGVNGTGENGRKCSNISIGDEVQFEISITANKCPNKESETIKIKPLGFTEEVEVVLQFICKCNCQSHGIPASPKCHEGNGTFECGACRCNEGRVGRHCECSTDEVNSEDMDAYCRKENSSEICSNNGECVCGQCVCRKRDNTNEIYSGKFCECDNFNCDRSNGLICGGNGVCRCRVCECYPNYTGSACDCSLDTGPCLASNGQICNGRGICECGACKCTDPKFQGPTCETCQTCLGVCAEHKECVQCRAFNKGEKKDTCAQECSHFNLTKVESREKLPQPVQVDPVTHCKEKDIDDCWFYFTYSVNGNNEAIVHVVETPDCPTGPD
T6 sequence (P08648 42-894 limits assumed): as the sequence (P08648 42-894 limits assumed) above
T6 sequence (P08648 895-995 limits assumed): as the sequence (P08648 895-995 limits assumed) above
T6 sequence (P05556 21-728 limits assumed): as the sequence (P05556 21-728 limits assumed) above

B1: A2-6C10 (antibody, V domains shown)
VH: QVQLKESGPGLVAPSQSLSITCTISGFSLTTYGVHWVRQPPGKGLEWLVVIWSDGSTTYNSALKSRLNITKDNSKSQVFLKMNSLQTDDTAMYYCVRHGGLLRRDAMDYWGQGTSVTVSS
VL: QIVLTQSPAIMSASLGERVTMTCTASSSVSSNSFHWYQQKPGSSPKLWLYSTSNLASGVPARFSGSGSGTSYSLTISSMEAEDAATYYCHQYLRSPPTFGGGTKLEIK
notes: mouse hybridoma antibody
Absorbance 450 nm [1]: 2.01 | Kd [2]: 3.5 nM | koff [2]: 0.000911 s⁻¹ | kon [2]: 260000 M⁻¹ s⁻¹

B2: A-11G01 (antibody, V domains shown)
VH: B1 VH
VL: B1 VL
notes: mouse hybridoma supernatant
Absorbance 450 nm [3]: 0.0843 A450 | Absorbance 450 nm [4]: 0.519 A450 | Absorbance 450 nm [5]: 0.0766 A450

B3: A-3A08 (antibody, V domains shown)
VH: B1 VH
VL: B1 VL
notes: mouse hybridoma supernatant
Absorbance 450 nm [3]: 0.0769 A450 | Absorbance 450 nm [4]: 0.352 A450

B4: A-4G02 (antibody, V domains shown)
VH: QVQLKESGPGLVAPSQSLSITCTISGFSLTSYGVHWVRQPPGKGLEWLVVIWSDGSTTYNSTLKSRLSISKDNSKSQVFFKMNSLQTDDTAMYYCARHYDYDGDWFAYWGQGTLVTVSA
VL: B1 VL with S28R, F34L, L49I
notes: mouse hybridoma supernatant
Absorbance 450 nm [3]: 0.0801 A450 | Absorbance 450 nm [4]: 0.687 A450 | Absorbance 450 nm [5]: 0.0959 A450

B5: A-15B08 (antibody, V domains shown)
VH: B4 VH
VL: B1 VL with S28R, F34L, L49I
notes: mouse hybridoma supernatant in this assay
Absorbance 450 nm [3]: 0.0855 A450 | Absorbance 450 nm [4]: 0.824 A450 | Absorbance 450 nm [5]: 0.0924 A450

B6: A2-8H11 (antibody, V domains shown)
VH: B1 VH
VL: B1 VL
notes: mouse hybridoma antibody
Absorbance 450 nm [1]: 1.45 | Kd [2]: 4.81 nM | koff [2]: 0.00139 s⁻¹ | kon [2]: 289000 M⁻¹ s⁻¹

B7: A-7D06 (antibody, V domains shown)
VH: B1 VH
VL: B1 VL
notes: mouse hybridoma supernatant
Absorbance 450 nm [3]: 0.0848 A450 | Absorbance 450 nm [4]: 0.613 A450 | Absorbance 450 nm [5]: 0.0755 A450

B8: C-14D12 (antibody, V domains shown)
VH: QVQLKESGPDLVAPSQSLSITCTVSGFSLTDYGVHWVRQPPGKGLEWLVVIWSDGSTTYNSALKSRLSITKDTSKRQVFLKMNSLQTDDTAMYYCARHAPSFIRYGSRYDALDYWGQGTSVTVSS
VL: B1 VL with M21L, S30T, N32S, S33F, F34L, L49I, L93H
notes: as for B5
Absorbance 450 nm [3]: 0.171 A450 | Absorbance 450 nm [4]: 0.702 A450 | Absorbance 450 nm [5]: 0.17 A450

B9: C-8G11 (antibody, V domains shown)
VH: B8 VH
VL: B1 VL with M21L, S30T, N32S, S33F, F34L, L49I, L93H
notes: mouse hybridoma supernatant
Absorbance 450 nm [3]: 0.165 A450 | Absorbance 450 nm [4]: 0.805 A450 | Absorbance 450 nm [5]: 0.0872 A450

B10: A2-9A11 (antibody, V domains shown)
VH: B1 VH
VL: B1 VL
notes: mouse hybridoma antibody
Absorbance 450 nm [1]: 1.91 | Kd [2]: 5.02 nM | koff [2]: 0.00139 s⁻¹ | kon [2]: 277000 M⁻¹ s⁻¹

B11: A-14G08 (antibody, V domains shown)
VH: QVQLQQPGAELVKPGASVKLSCKASGYTFTIYWINWVKQRPGQGLEWIGKIYPGSISTDYNEKFKSKATLTVDTSSSTAYMQLSSLTSDDSAVYYCAITGTGGLAYWGQGTLVTVSA
VL: ENVLTQSPAIMSASLGEKVTMTCRASSSVNYMYWYQQKSDASPKLWIYFTSSLAPGVPGRFSGSGSGNSYSLTISTMEGEDAATYYCQQFTTSPFTFGSGTKLEIK
notes: mouse hybridoma supernatant
Absorbance 450 nm [3]: 0.108 A450 | Absorbance 450 nm [4]: 1.17 A450 | Absorbance 450 nm [5]: 0.11 A450

B12: A-15H11 (antibody, V domains shown)
VH: B11 VH
VL: B11 VL
notes: mouse hybridoma supernatant
Absorbance 450 nm [3]: 0.081 A450 | Absorbance 450 nm [4]: 1.25 A450 | Absorbance 450 nm [5]: 0.0799 A450

B13: A2-7F01: anti-α5β1 antibody, VH SEQ ID NO:91, VL SEQ ID NO:92 (antibody, V domains shown)
VH: B11 VH with K50N, I56S, D59N, S66T, L104F
VL: B11 VL with T22S, G59T, Y70F, T76S, F90L, T92G, K102R
modifications: A2-7F01 VH Sequence; A2-7F01 VL Sequence
binding of rh-α5β1 complexed with antibody to A-15B08 on the sensor (rh-α5β1; antibody preincubated with rh-α5β1, A-15B08 immobilized on sensor): able to bind | binding of rh-α5β1 complexed with antibody to C-14D12 on the sensor (rh-α5β1; antibody preincubated with rh-α5β1, C-14D12 immobilized on sensor): able to bind | Response (nm) (rh-α5β1; immobilized mAb A2-7A05): −0.17 nm | % Response (rh-α5β1; immobilized mAb A2-7A05): −472.70% | Response (nm) (rh-α5β1; immobilized mAb A-15B08): 0.29 nm | % Response (rh-α5β1; immobilized mAb A-15B08): 142.59% | Response (nm) (rh-α5β1; immobilized mAb C-14D12): 0.30 nm | % Response (rh-α5β1; immobilized mAb C-14D12): 133.09% | epitope group (rh-α5β1; two epitope groups among 6 antibodies): one group | Selected Human α5 Specific [6]: Yes
